Measurements: patent publication US6576753B1, “DNA encoding human leukotriene C4 synthase” (The Brigham and Women's Hospital, Inc., priority 1994, dated 2003)
Positions count from the first letter of the chain named. Names may count otherwise. “Also recorded” adds a separate entry of the source. Read-outs that look alike come from different tables or passages of the source.

B1: Q25K: LTC4 synthase point mutant (protein, UniProt Q16873 1-150, looked up, variant Q25K)
Leukotriene C4 synthase: MKDEVALLAAVTLLGVLLQAYFSLKVISARRAFRVSPPLTTGPPEFERVYRAQVNCSEYFPLFLATLWVAGIFFHEGAAALCGLVYLFARLRYFQGYARSAQLRLAPLYASARALWLLVALAALGLLAHFLPAALRAALLGRLRTLLPWA
B2: R51I/WT: recombinant pseudo-heterodimer of R51I LTC4 synthase monomer and wild-type monomer (protein, UniProt Q16873 1-150, looked up, variant R51I)
Leukotriene C4 synthase: B1 Leukotriene C4 synthase with K25Q, R51I
modifications: heterodimer with wild-type monomer
B3: deletion of the charged amino acids K2 and D3 at the amino terminus: LTC4 synthase deletion mutant (protein, UniProt Q16873 1-150, looked up, variant K2* D3*)
Leukotriene C4 synthase: MEVALLAAVTLLGVLLQAYFSLQVISARRAFRVSPPLTTGPPEFERVYRAQVNCSEYFPLFLATLWVAGIFFHEGAAALCGLVYLFARLRYFQGYARSAQLRLAPLYASARALWLLVALAALGLLAHFLPAALRAALLGRLRTLLPWA

Test system: LTC4 synthase
Test: Conjugation of LTA4-ME with GSH by solubilized microsomes of COS cells transfected with wild-type or mutant LTC4 synthase
Settings: for conjugation function of transfected COS cell microsomes: compared to wild-type construct; for Function / Km / effect on Km of GSH: COS cell microsome
Protocol: OF THE EXPRESSED PROTEINS: COS-7 cells were transfected with either wild-type LTC4 synthase cDNA or the mutated LTC4 synthase cDNA by DEAE-dextran transfection (Lam et al., Proc. Natl. Acad. Sci. USA., 91:7663, 1994). Three days after transfection, the cells were harvested by treatment with trypsin and suspended in microsomal buffer (50 mM HEPES buffer pH 7.9 containing 2 mM EDTA and 10 mM β-mercaptoethanol) at a concentration of 5×10^6 cells/ml. The cells were lysed by sonication with a Branson microtip sonicator (Danbury, Conn.) at a setting of 7. Cell lysates were centrifuged at 100,000×g for 60 min at 4° C., and the pellets (microsomes) were resuspended in microsomal buffer and were solubilized by the addition of 0.4% Triton X-102, 0.4% sodium deoxycholate (DOC), and 10% glycerol and stirring at 4° C. for 45 min.
The function of each mutant enzyme as well as the wild-type enzyme was first screened by the incubation of 1-10 μl of solubilized COS cell microsomes with 10 mM GSH and 20 μM LTA4-ME in 200 μl 50 mM HEPES buffer containing 10 mM MgCl2, pH 7.6. The reactions were carried out at room temperature for 10 min and stopped by the addition of 3 vol methanol containing 200 ng prostaglandin B2 (PGB2) as an internal standard. LTC4-ME levels in the samples were determined with high performance liquid chromatography (HPLC).
Reverse phase (RP)-HPLC was carried out with a model 126 dual pump system and model 167 scanning UV detector (Beckman Instruments) controlled by an Gateway 2000 P4D66 computer equipped with Beckman System Gold software. Samples were applied to a 5-μm 4.6×250-mm C18 Ultrasphere reverse phase column (Beckman Instruments) equilibrated with a solvent of methanol/acetonitrile/water/acetic acid (10:15:100:0.2, v/v), pH 6.0 (solvent A). Immediately after the sample was injected, the column was eluted at a flow rate of 1 ml/min with a programmed concave gradient (System Cold curve 6) to 20% solvent A and 80% solvent B (pure methanol) over 0.2 min with continuation isocratically for 5.8 min. Beginning at 6 min, solvent B was increased linearly to 100% over 0.2 min and was maintained at this level for 7 min more. The ultraviolet absorbance at 280 nm and the ultraviolet spectra were recorded simultaneously. The retention times for PGB2 and LTC4-ME were 7.4 and 8.9 min, respectively. LTC4-ME was quantitated by calculating the ratio of the peak area to the area of the internal standard PGB2.

Molecule | conjugation function of transfected COS cell microsomes | Function | Km (read-out: Km GSH) [µM] | Km (read-out: Km LTA4-ME) [µM] | other results
V69S: LTC4 synthase point mutant | did not affect the function | – | – | – | –
Q53N: LTC4 synthase point mutant | did not affect the function | – | – | – | –
S100V: LTC4 synthase point mutant | did not affect the function | – | – | – | –
H75Q: LTC4 synthase point mutant | did not affect the function | – | – | – | –
S111V: LTC4 synthase point mutant | did not affect the function | – | – | – | –
R104S: LTC4 synthase point mutant | did not affect the function | – | – | – | –
R92S: LTC4 synthase point mutant | did not affect the function | – | – | – | –
Y59F: LTC4 synthase point mutant | – | 100 % of WT | 15500 | 19 | –
E58Q: LTC4 synthase point mutant | did not attenuate the conjugation function | – | – | – | –
R48S: LTC4 synthase point mutant | did not attenuate the conjugation function; also recorded: did not affect the function | – | – | – | –
C56S: LTC4 synthase point mutant | do not affect conjugation function | – | – | – | conjugation function of transfected COS cell microsomes (listed as C56 to S56): None of the mutations affected conjugation function
E45Q: LTC4 synthase point mutant | did not attenuate the conjugation function; also recorded: did not affect the function | – | – | – | –
Y109I: LTC4 synthase point mutant | did not affect the function | 100 % of WT | 1600 | 20 | –
V54Q: LTC4 synthase point mutant | did not affect the function | – | – | – | –
R51I: LTC4 synthase point mutant | do not show conjugation activity | – | – | – | conjugation function of transfected COS cell microsomes (listed as Arg 51 to isoleucine): abolished the functional activity
L39F: LTC4 synthase point mutant | did not affect the function | – | – | – | –
E47Q: LTC4 synthase point mutant | did not attenuate the conjugation function; also recorded: did not affect the function | – | – | – | –

Molecule | conjugation function of transfected COS cell microsomes | Function | Km (read-out: Km GSH) [µM] | Km (read-out: Km LTA4-ME) [µM] | other results
N55A: LTC4 synthase point mutant of the consensus N-glycosylation site | – | 85 % of WT | 10700 | 7.7 | effect on Km of GSH: increase the Km of GSH
T66V: LTC4 synthase point mutant | did not affect the function | – | – | – | –
F46Y: LTC4 synthase point mutant | did not affect the function | – | – | – | –
Y50F: LTC4 synthase point mutant | did not affect the function | – | – | – | –
F60Y: LTC4 synthase point mutant | did not affect the function | – | – | – | –
A52S: LTC4 synthase point mutant | – | 80 % of WT | 30000 | 4.5 | effect on Km of GSH: did exhibit an increase in Km for GSH
R99S: LTC4 synthase point mutant | did not affect the function | – | – | – | –
E76Q: LTC4 synthase point mutant | did not affect the function | – | – | – | –
V49F: LTC4 synthase point mutant | – | 100 % of WT | 9200 | 10 | –
V69T: LTC4 synthase point mutant | – | 100 % of WT | 2000 | 19 | –
R51K: LTC4 synthase point mutant | activity was not diminished | 100 % of WT | 2300 | 9.4 | –
L62T: LTC4 synthase point mutant | did not affect the function | 100 % of WT | 2500 | 6.7 | –
Y97F: LTC4 synthase point mutant | – | 100 % of WT | 16500 | 16.5 | –
B1 | did not affect the function | – | – | – | –
B2 | retained enzymatic function | 90 % of WT | 3200 | 6.5 | –
B3 | Neither the deletion of the charged amino acids K2 and D3 at the amino terminus nor the deletion of the 14 amino acids at the carboxyl terminus altered the function | – | – | – | –
